{"source": "patent US6416987B1", "about": "“Mutants of thymidylate synthase and uses thereof” (Sloan Kettering Institute for Cancer Research, priority 1997, dated 2002)", "key": {"[1]": {"biological_target": "human TS (Homo sapiens, UniProt P04818, Y33H)", "sequence (P04818 whole entry Y33H)": "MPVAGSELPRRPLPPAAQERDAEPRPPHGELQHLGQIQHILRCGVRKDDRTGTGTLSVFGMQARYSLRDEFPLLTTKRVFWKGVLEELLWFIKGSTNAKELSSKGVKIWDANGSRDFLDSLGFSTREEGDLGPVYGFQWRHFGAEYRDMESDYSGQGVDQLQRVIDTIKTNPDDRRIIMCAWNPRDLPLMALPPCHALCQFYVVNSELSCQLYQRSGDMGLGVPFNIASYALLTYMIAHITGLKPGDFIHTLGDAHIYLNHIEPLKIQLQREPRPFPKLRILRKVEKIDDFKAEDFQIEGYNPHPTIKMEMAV", "settings": "vs wild-type TS; cited from earlier work"}, "[2]": {"system": "Mouse TS-negative cells (FSthy21)", "test": "Rescue of TS-negative cells by transfection of human TS cDNAs", "type": "cell-based", "settings": "for TS catalytic function / complementation of growth of TS-negative cells: selective medium lacking thymidine; for FM3A TS cells surviving by transfection: selective medium without thymidine", "excerpt": "Mouse TS-negative cells (FSthy21) were transfected with a plasmid (pcDNA3hTS*) encoding wild-type or a various mutant human TS enzyme by standard DOTAP transfection procedures. The host cells are deficient in TS, which are unable to survive without exogenous thymidine. […] In contrast, cells were unable to survive with transfection of other 11 human TS variants. For each surviving transfectant, at least 12 individual clones were isolated by soft agar or limiting dilution in 96-well plates. Those clones were expanded to cell lines by growth in normal media. Three cell clones for each transfectant were randomly selected for drug sensitivity assay."}, "[3]": {"system": "human thymidylate synthase", "test": "Kinetic parameters of wild-type and mutant human thymidylate synthases", "type": "biochemical", "procedure": "TS activity was monitored spectrophotometrically at 340 nm as described (Wahba et al., 1961). Activity was determined at 30° C. The assay mixture contained 50 mM Tris.HCl, pH 7.4, 25 mM MgCl2, 6.5 mM formadehyde, 1 mM EDTA, 75 mM BME and 100 μM dUMP, CH2H4folate (100 μM) was added to initiate the reaction. Black cuvettes lacked CH2H4folate. A unit of activity is defined as the amount of enzyme required to convert 1 μmol of dUMP to dTMP/minutes at 30° C. Protein was determined from OD280=0.87×10^5 M^−1 cm^−1, which is equivalent to 1.43 OD280/mg of protein.\nMichaelis constants (Km's) for CH2H4folate and dUMP were determined from initial velocity measurements, which were obtained by measuring the change in OD340 with a Shimadzu UV-2101 PC spectrophotometer. […] Steady-state kinetic parameters were subsequently obtained by a nonlinear least-squares fit of the data to the Michaelis-Menten equation using a computer program. The kcats were calculated by dividing Vmax by the estimated concentration of enzyme used in the reaction."}, "[4]": {"settings": "CH2H4folate 3 mM, read-out: Km (dUMP)"}, "[5]": {"settings": "dUMP fixed at 200 μM, read-out: Km (CH2H4folate)"}}, "note": "Entries after “also recorded” stand apart in the source; their conditions may differ. Read-outs that look alike come from different tables or passages of the source.", "data": [{"molecule": "Tyr33 to His33: literature human TS mutant found in a human colon tumor cell line (protein, UniProt P04818 2-313, looked up, variant Y33H) Thymidylate synthase: PVAGSELPRRPLPPAAQERDAEPRPPHGELQHLGQIQHILRCGVRKDDRTGTGTLSVFGMQARYSLRDEFPLLTTKRVFWKGVLEELLWFIKGSTNAKELSSKGVKIWDANGSRDFLDSLGFSTREEGDLGPVYGFQWRHFGAEYRDMESDYSGQGVDQLQRVIDTIKTNPDDRRIIMCAWNPRDLPLMALPPCHALCQFYVVNSELSCQLYQRSGDMGLGVPFNIASYALLTYMIAHITGLKPGDFIHTLGDAHIYLNHIEPLKIQLQREPRPFPKLRILRKVEKIDDFKAEDFQIEGYNPHPTIKMEMAV", "values": [{"measurement": "drop in kcat", "setting": "[1]", "result": 8, "unit": "fold"}]}, {"molecule": "D49G: human TS mutant Asp49→Gly (protein) MPVAGSELPRRPLPPAAQERDAEPRPPHGELQYLGQIQHILRCGVRKDGRTGTGTLSVFGMQARYSLRDEFPLLTTKRVFWKGVLEELLWFIKGSTNAKELSSKGVKIWDANGSRDFLDSLGFSTREEGDLGPVYGFQWRHFGAEYRDMESDYSGQGVDQLQRVIDTIKTNPDDRRIIMCAWNPRDLPLMALPPCHALCQFYVVNSELSCQLYQRSGDMGLGVPFNIASYALLTYMIAHITGLKPGDFIHTLGDAHIYLNHIEPLKIQLQREPRPFPKLRILRKVGKIDDFKAEDFQIEGYNPHPTIKMEMAV", "values": [{"measurement": "TS catalytic function / complementation of growth of TS-negative cells", "setting": "[2]", "result": "able to complement growth; also recorded: retain TS catalytic function; also recorded: able to allow growth"}, {"measurement": "FM3A TS cells surviving by transfection", "setting": "[2]", "result": "yes"}, {"measurement": "increase of Km for CH2H4folate over wild-type", "setting": "[3]", "result": 4, "unit": "fold"}, {"measurement": "increase of Km for dUMP over wild-type", "setting": "[3]", "result": 4, "unit": "fold"}, {"measurement": "kcat", "setting": "[3]", "result": 0.16, "unit": "s⁻¹"}, {"measurement": "kcat lower than wild-type TS", "setting": "[3]", "result": 3, "unit": "fold"}, {"measurement": "Km", "setting": "[3]; [4]", "result": 12, "unit": "µM"}, {"measurement": "Km", "setting": "[3]; [5]", "result": 122, "unit": "µM"}]}, {"molecule": "wt: wild-type human thymidylate synthase (recombinant, Pro2 to Leu2 codon modification) (protein, listed as Homo sapiens, Wild type human thymidylate synthase amino acid sequence (Genbank Accession number NP001062)) MPVAGSELPRRPLPPAAQERDAEPRPPHGELQYLGQIQHILRCGVRKDDRTGTGTLSVFGMQARYSLRDEFPLLTTKRVFWKGVLEELLWFIKGSTNAKELSSKGVKIWDANGSRDFLDSLGFSTREEGDLGPVYGFQWRHFGAEYRDMESDYSGQGVDQLQRVIDTIKTNPDDRRIIMCAWNPRDLPLMALPPCHALCQFYVVNSELSCQLYQRSGDMGLGVPFNIASYALLTYMIAHITGLKPGDFIHTLGDAHIYLNHIEPLKIQLQREPRPFPKLRILRKVGKIDDFKAEDFQIEGYNPHPTIKMEMAV", "values": [{"measurement": "TS catalytic function / complementation of growth of TS-negative cells", "setting": "[2]", "result": "able to complement growth"}, {"measurement": "FM3A TS cells surviving by transfection", "setting": "[2]", "result": "yes"}, {"measurement": "kcat", "setting": "[3]", "result": 0.68, "unit": "s⁻¹"}, {"measurement": "Km", "setting": "[3]; [4]", "result": 4.4, "unit": "µM"}, {"measurement": "Km", "setting": "[3]; [5]", "result": 32.4, "unit": "µM"}]}, {"molecule": "I108A: human TS mutant Ile108→Ala (protein) MPVAGSELPRRPLPPAAQERDAEPRPPHGELQYLGQIQHILRCGVRKDDRTGTGTLSVFGMQARYSLRDEFPLLTTKRVFWKGVLEELLWFIKGSTNAKELSSKGVKAWDANGSRDFLDSLGFSTREEGDLGPVYGFQWRHFGAEYRDMESDYSGQGVDQLQRVIDTIKTNPDDRRIIMCAWNPRDLPLMALPPCHALCQFYVVNSELSCQLYQRSGDMGLGVPFNIASYALLTYMIAHITGLKPGDFIHTLGDAHIYLNHIEPLKIQLQREPRPFPKLRILRKVGKIDDFKAEDFQIEGYNPHPTIKMEMAV", "values": [{"measurement": "TS catalytic function / complementation of growth of TS-negative cells", "setting": "[2]", "result": "able to complement growth; also recorded: functional"}, {"measurement": "FM3A TS cells surviving by transfection", "setting": "[2]", "result": "yes"}, {"measurement": "increase of Km for CH2H4folate over wild-type", "setting": "[3]", "result": 22, "unit": "fold"}, {"measurement": "increase of Km for dUMP over wild-type", "setting": "[3]", "result": 4, "unit": "fold"}, {"measurement": "kcat", "setting": "[3]", "result": 0.22, "unit": "s⁻¹"}, {"measurement": "kcat lower than wild-type TS", "setting": "[3]", "result": 3, "unit": "fold"}, {"measurement": "Km", "setting": "[3]; [4]", "result": 15, "unit": "µM"}, {"measurement": "Km", "setting": "[3]; [5]", "result": 746, "unit": "µM"}]}, {"molecule": "F225W: human TS mutant Phe225→Trp (protein) MPVAGSELPRRPLPPAAQERDAEPRPPHGELQYLGQIQHILRCGVRKDDRTGTGTLSVFGMQARYSLRDEFPLLTTKRVFWKGVLEELLWFIKGSTNAKELSSKGVKIWDANGSRDFLDSLGFSTREEGDLGPVYGFQWRHFGAEYRDMESDYSGQGVDQLQRVIDTIKTNPDDRRIIMCAWNPRDLPLMALPPCHALCQFYVVNSELSCQLYQRSGDMGLGVPWNIASYALLTYMIAHITGLKPGDFIHTLGDAHIYLNHIEPLKIQLQREPRPFPKLRILRKVGKIDDFKAEDFQIEGYNPHPTIKMEMAV", "values": [{"measurement": "TS catalytic function / complementation of growth of TS-negative cells", "setting": "[2]", "result": "able to complement growth; also recorded: active enzymes"}, {"measurement": "FM3A TS cells surviving by transfection", "setting": "[2]", "result": "yes"}, {"measurement": "increase of Km for CH2H4folate over wild-type", "setting": "[3]", "result": 4, "unit": "fold"}, {"measurement": "kcat", "setting": "[3]", "result": 2.3, "unit": "s⁻¹"}, {"measurement": "Km", "setting": "[3]; [4]", "result": 3.6, "unit": "µM"}, {"measurement": "Km", "setting": "[3]; [5]", "result": 165, "unit": "µM"}]}, {"molecule": "L221R: human TS mutant Leu221→Arg (protein) MPVAGSELPRRPLPPAAQERDAEPRPPHGELQYLGQIQHILRCGVRKDDRTGTGTLSVFGMQARYSLRDEFPLLTTKRVFWKGVLEELLWFIKGSTNAKELSSKGVKIWDANGSRDFLDSLGFSTREEGDLGPVYGFQWRHFGAEYRDMESDYSGQGVDQLQRVIDTIKTNPDDRRIIMCAWNPRDLPLMALPPCHALCQFYVVNSELSCQLYQRSGDMGRGVPFNIASYALLTYMIAHITGLKPGDFIHTLGDAHIYLNHIEPLKIQLQREPRPFPKLRILRKVGKIDDFKAEDFQIEGYNPHPTIKMEMAV", "values": [{"measurement": "FM3A TS cells surviving by transfection", "setting": "[2]", "result": "no"}]}, {"molecule": "pcDNA3hTS270: human TS mutant Ile108→Gly (protein, UniProt P04818 2-313, looked up, variant I108G) Thymidylate synthase: PVAGSELPRRPLPPAAQERDAEPRPPHGELQYLGQIQHILRCGVRKDDRTGTGTLSVFGMQARYSLRDEFPLLTTKRVFWKGVLEELLWFIKGSTNAKELSSKGVKGWDANGSRDFLDSLGFSTREEGDLGPVYGFQWRHFGAEYRDMESDYSGQGVDQLQRVIDTIKTNPDDRRIIMCAWNPRDLPLMALPPCHALCQFYVVNSELSCQLYQRSGDMGLGVPFNIASYALLTYMIAHITGLKPGDFIHTLGDAHIYLNHIEPLKIQLQREPRPFPKLRILRKVEKIDDFKAEDFQIEGYNPHPTIKMEMAV", "values": [{"measurement": "FM3A TS cells surviving by transfection", "setting": "[2]", "result": "no"}]}, {"molecule": "pcDNA3hTS271: human TS mutant Ile108→Glu (protein, UniProt P04818 2-313, looked up, variant I108E) Thymidylate synthase: PVAGSELPRRPLPPAAQERDAEPRPPHGELQYLGQIQHILRCGVRKDDRTGTGTLSVFGMQARYSLRDEFPLLTTKRVFWKGVLEELLWFIKGSTNAKELSSKGVKEWDANGSRDFLDSLGFSTREEGDLGPVYGFQWRHFGAEYRDMESDYSGQGVDQLQRVIDTIKTNPDDRRIIMCAWNPRDLPLMALPPCHALCQFYVVNSELSCQLYQRSGDMGLGVPFNIASYALLTYMIAHITGLKPGDFIHTLGDAHIYLNHIEPLKIQLQREPRPFPKLRILRKVEKIDDFKAEDFQIEGYNPHPTIKMEMAV", "values": [{"measurement": "FM3A TS cells surviving by transfection", "setting": "[2]", "result": "no"}]}, {"molecule": "pcDNA3hTS272: human TS mutant Ile108→Asn (protein, UniProt P04818 2-313, looked up, variant I108N) Thymidylate synthase: PVAGSELPRRPLPPAAQERDAEPRPPHGELQYLGQIQHILRCGVRKDDRTGTGTLSVFGMQARYSLRDEFPLLTTKRVFWKGVLEELLWFIKGSTNAKELSSKGVKNWDANGSRDFLDSLGFSTREEGDLGPVYGFQWRHFGAEYRDMESDYSGQGVDQLQRVIDTIKTNPDDRRIIMCAWNPRDLPLMALPPCHALCQFYVVNSELSCQLYQRSGDMGLGVPFNIASYALLTYMIAHITGLKPGDFIHTLGDAHIYLNHIEPLKIQLQREPRPFPKLRILRKVEKIDDFKAEDFQIEGYNPHPTIKMEMAV", "values": [{"measurement": "FM3A TS cells surviving by transfection", "setting": "[2]", "result": "no"}]}, {"molecule": "F59L: human TS mutant Phe59→Leu (protein) MPVAGSELPRRPLPPAAQERDAEPRPPHGELQYLGQIQHILRCGVRKDDRTGTGTLSVLGMQARYSLRDEFPLLTTKRVFWKGVLEELLWFIKGSTNAKELSSKGVKIWDANGSRDFLDSLGFSTREEGDLGPVYGFQWRHFGAEYRDMESDYSGQGVDQLQRVIDTIKTNPDDRRIIMCAWNPRDLPLMALPPCHALCQFYVVNSELSCQLYQRSGDMGLGVPFNIASYALLTYMIAHITGLKPGDFIHTLGDAHIYLNHIEPLKIQLQREPRPFPKLRILRKVGKIDDFKAEDFQIEGYNPHPTIKMEMAV", "values": [{"measurement": "FM3A TS cells surviving by transfection", "setting": "[2]", "result": "no"}]}, {"molecule": "Q214R: human TS mutant Gln214→Arg (protein) MPVAGSELPRRPLPPAAQERDAEPRPPHGELQYLGQIQHILRCGVRKDDRTGTGTLSVFGMQARYSLRDEFPLLTTKRVFWKGVLEELLWFIKGSTNAKELSSKGVKIWDANGSRDFLDSLGFSTREEGDLGPVYGFQWRHFGAEYRDMESDYSGQGVDQLQRVIDTIKTNPDDRRIIMCAWNPRDLPLMALPPCHALCQFYVVNSELSCQLYRRSGDMGLGVPFNIASYALLTYMIAHITGLKPGDFIHTLGDAHIYLNHIEPLKIQLQREPRPFPKLRILRKVGKIDDFKAEDFQIEGYNPHPTIKMEMAV", "values": [{"measurement": "FM3A TS cells surviving by transfection", "setting": "[2]", "result": "no"}]}]}
